biological target: T1, anti-VEGF IgG antibody (DyLight-labelled in the FACS analyses.); experiment: FACS of eCPX3.0 clones at 3 concentrations of DyLight labeled anti-VEGF
T1 construct: It was DyLight-labelled in the FACS analysis; also called anti-VEGF antibody; DyLight labeled anti-VEGF
T1 sequence (VH, as listed by the source limits assumed, chain 1 of 2): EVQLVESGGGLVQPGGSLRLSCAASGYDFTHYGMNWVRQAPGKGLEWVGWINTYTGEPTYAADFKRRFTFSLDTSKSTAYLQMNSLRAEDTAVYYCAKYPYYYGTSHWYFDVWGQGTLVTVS
T1 sequence (VL, as listed by the source limits assumed, chain 2 of 2): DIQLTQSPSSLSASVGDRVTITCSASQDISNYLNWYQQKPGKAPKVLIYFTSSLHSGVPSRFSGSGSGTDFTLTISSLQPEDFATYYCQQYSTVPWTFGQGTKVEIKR

| Binder | fold higher affinity than 306P [fold] |
| --- | --- |
| SCTAWQSMVEQRCYFG [JS1825] | ≥ 10 |
| PCSAWQSMVEQRCYFG [JS1827] | ≥ 10 |
| PCSKWESMVLQSCYFG [JS1829] | ≥ 10 |

biological target: T1, anti-VEGF IgG antibody; experiment: method not stated

| Binder | Kd [nM] |
| --- | --- |
| PCSEWQSMVQPRCYYGG [JS306] | > 600 |

biological target: T2, anti-VEGF scFv AB; experiment: FACS, peptide displayed on E. coli
T2 construct: VL-linker-VH designed from ranibizumab; also called anti-VECF scFv
T2 sequence (scFv, as listed by the source): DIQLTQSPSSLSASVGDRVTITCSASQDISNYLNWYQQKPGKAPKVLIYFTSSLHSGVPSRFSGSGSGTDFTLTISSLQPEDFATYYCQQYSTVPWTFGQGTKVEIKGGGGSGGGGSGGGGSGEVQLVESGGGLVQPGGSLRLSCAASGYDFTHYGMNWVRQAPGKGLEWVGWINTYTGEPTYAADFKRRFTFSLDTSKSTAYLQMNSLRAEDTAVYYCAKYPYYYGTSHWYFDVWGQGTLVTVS

| Binder | binding result |
| --- | --- |
| ATAVWNSMVKQSCYMQG (also called 283MM) [JS283] | binds |
| GHGMCYTILEDHCDRVR (also called 292MM) [JS292] | binds |
| VHAWEQLVIQELYHC (also called 311MM) [JS311] | binds |
| GVGLCYTILEQWCEMGR (also called 313MM) [JS313] | binds |
| GAMACYNIFEYWCSAMK (also called 315MM) [JS315] | binds |

Source: patent US20160228546A1 (CYTOMX THERAPEUTICS, published 2016)
